Test [1] addresses GP IIb/IIIa in its activated, fibrinogen-bound state on activated mouse platelets (mouse) (UniProt Q9QUM0). Kind of test: ex vivo 11.7 T MRI of wire-injured mouse femoral artery after bead perfusion.
The target is the same in test [2]. Put plainly: histology of wire-injured mouse femoral artery after bead perfusion, 20-25 sections per animal.

Chain of GP IIb/IIIa in its activated, fibrinogen-bound state on activated mouse platelets (mouse) (Q9QUM0 32-1033, chain 1 of 2): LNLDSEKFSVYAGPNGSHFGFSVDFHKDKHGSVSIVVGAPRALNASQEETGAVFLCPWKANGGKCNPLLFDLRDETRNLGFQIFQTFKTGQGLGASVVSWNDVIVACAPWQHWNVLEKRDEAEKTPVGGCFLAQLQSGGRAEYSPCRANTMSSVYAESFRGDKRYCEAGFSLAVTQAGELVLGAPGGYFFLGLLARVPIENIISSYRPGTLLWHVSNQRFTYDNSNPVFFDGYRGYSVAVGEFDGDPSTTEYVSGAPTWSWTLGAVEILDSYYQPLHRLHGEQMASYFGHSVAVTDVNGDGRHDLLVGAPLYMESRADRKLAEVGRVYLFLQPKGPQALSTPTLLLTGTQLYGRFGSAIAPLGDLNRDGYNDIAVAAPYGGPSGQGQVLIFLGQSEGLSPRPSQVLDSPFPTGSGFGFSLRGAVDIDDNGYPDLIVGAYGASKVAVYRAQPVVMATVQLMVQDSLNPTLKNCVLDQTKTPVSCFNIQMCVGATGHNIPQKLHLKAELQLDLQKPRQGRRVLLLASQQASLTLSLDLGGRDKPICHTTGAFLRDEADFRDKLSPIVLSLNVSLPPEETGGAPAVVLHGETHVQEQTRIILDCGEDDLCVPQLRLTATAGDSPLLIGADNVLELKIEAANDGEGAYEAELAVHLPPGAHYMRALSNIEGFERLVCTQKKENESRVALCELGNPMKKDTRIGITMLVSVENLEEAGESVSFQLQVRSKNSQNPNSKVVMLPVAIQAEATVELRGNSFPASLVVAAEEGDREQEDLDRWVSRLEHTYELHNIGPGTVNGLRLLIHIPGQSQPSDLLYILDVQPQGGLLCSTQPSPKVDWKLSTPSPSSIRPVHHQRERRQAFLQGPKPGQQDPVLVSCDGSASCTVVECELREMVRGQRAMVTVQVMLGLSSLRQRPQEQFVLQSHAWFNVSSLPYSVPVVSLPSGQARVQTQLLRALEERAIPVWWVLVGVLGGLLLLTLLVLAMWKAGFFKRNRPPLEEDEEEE
Chain of GP IIb/IIIa in its activated, fibrinogen-bound state on activated mouse platelets (mouse) (O54890 26-787, chain 2 of 2, further chain): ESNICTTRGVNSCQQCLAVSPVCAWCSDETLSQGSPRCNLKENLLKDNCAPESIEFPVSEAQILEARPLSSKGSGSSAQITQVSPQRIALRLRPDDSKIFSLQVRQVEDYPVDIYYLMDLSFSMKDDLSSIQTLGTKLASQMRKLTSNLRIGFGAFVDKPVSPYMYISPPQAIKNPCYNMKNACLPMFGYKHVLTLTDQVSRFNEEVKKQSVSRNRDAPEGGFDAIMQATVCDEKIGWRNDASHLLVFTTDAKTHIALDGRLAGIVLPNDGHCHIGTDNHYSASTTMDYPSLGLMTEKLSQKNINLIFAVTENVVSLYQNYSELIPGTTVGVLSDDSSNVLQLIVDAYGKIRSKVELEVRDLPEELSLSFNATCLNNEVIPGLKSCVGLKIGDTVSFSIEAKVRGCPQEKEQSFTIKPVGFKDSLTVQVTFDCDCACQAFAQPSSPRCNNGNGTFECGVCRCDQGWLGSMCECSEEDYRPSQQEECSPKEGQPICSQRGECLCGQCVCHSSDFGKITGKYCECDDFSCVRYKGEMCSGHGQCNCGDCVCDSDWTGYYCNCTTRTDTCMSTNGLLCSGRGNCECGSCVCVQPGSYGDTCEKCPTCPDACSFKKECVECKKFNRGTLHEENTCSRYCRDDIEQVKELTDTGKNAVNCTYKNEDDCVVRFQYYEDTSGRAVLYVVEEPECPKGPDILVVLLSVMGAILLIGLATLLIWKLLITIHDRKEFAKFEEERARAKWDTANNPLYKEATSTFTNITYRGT

In test [1], “Control-MPIO (irrelevant single-chain antibody conjugated to 1 µm iron oxide microparticles) (scFv)” yielded a luminal areas of low signal (MPIO-induced MRI signal void) of 6.2. This substance displayed an MPIOs bound per histology section (beads per section) in test [2] of 0.5.

Values taken from patent US20140243502A1.
